In publication PMC7948426:

Molecular target: NES–Venus–mGsi (nuclear export sequence–Venus–mini G protein mGsi)
Assay: BRET with mini G protein V-mGsi (net BRET pH profile)
Details: read off a plot
[1] = 150 mM K+ (no Na+), pH 6.5 point
[2] = 150 mM K+ (no Na+), pH 8.5 point

| response [1] [netBRET] | response [2] [netBRET] | response (150 mM Na+, pH 6.5 point) [netBRET] | response (150 mM Na+, pH 8.5 point) [netBRET] | Substance |
| --- | --- | --- | --- | --- |
| 0.0057 | 0.0026 | 0.0068 | 0.0022 | GPR4–Rluc8 (wild type) (from UniProt P46093) D63N; D282N |
| 0.033 | 0.019 | 0.032 | 0.02 | GPR65–Rluc8 (wild type) (from UniProt Q8IYL9) D60N; D286N |
| 0.029 | 0.026 | 0.028 | 0.018 | GPR68–Rluc8 (wild type) (from UniProt Q15743) E149Q |
| 0.063 | 0.052 | 0.06 | 0.034 | GPR65–Rluc8 (wild type) (from UniProt Q8IYL9) E142Q |
| 0.032 | 0.023 | 0.032 | 0.013 | GPR4–Rluc8 (wild type) (from UniProt P46093) E145Q |
| 0.0073 | 0.0037 | 0.006 | 0.0023 | GPR68–Rluc8 (wild type) (from UniProt Q15743) D67N; D282N |
